B1: 33 (protein)
chain: STAIAQEGAAPAAILHPEKWPRPATQRLIDPAVEKRVDALLKQLSVEEKVGQVIQGDIGTITPEDLRKYPLGSILAGGNSGPNGDDRAPPKEWLDLADAFYRVSLEKRPGHTPIPVLFGIDAVHGHGNIGSATIFPHNIALGATHDPELLRRIGEVTAREMAATGIDWTFAPALSVVRDDRWGRTYEGFSEDPEIVAAYSAAIVEGVQGKFGSKDFMAPGRIVASAKHFLADGGTDQGRDQGDARISEDELIRIHNAGYPPAIDAGVLTVMASFSSWQGIKHHGHKQLLTDVLKGQMGFNGFIVGDWNAHDQVPGCTKFNCPTSLIAGLDMYMAADSWKQLYENTLAQVKDGTIPMARLDDAVRRILRVKVLAGLFEKPAPKDRPGLPGLETLGSPEHRAVGREAVRKSLVLLKNDKGTLPLSPKARVLVAGDGADNIGKQSGGWTISWQGTGNRNDEFPGATSILGGIRDAVADAGGSVEFDVAGQYKTKPDVAIVVFGEEPYAEFQGDVETLEYQPDQKQDLALLKKLKDQGIPVVAVFLSGRPMWVNPELNASDAFVAAWLPGTEGGGVADVLFTDKAGKVQHDFAGKLSYSWPRTAAQTTVNRGDADYNPLFAYGYGLTYKDKSKVGTLPEESGVPAEARQNAGIYFRAGALRLPGRFL
B2: 35 (protein)
chain: STAIAQEGAAPAAILHPEKWPRPATQRLIDPAVEKRVDALLKQLSVEEKVGQVIQGDIGTITPEDLRKYPLGSILAGGNSGPNGDDRAPPKEWLDLADAFYRVSLEKRPGHTPIPVLFGIDAVHGHGNIGSATIFPHNIALGATHDPELLRRIGEVTAVEMAATGIDWTFAPALSVVRDDRWGRTYEGFSEDPEIVAAYSAKIVEGVQGKFGSKDFMAPGRIVASAKHFLADGGTDQGRDQGDARISEDELIRIHNAGYPPAIDAGVLTVMASFSSWQGIKHHGHKQLLTDVLKGQMGFNGFIVGDWNAHDQVPGCTKFNCPTSLIAGLDMYMAADSWKQLYENTLAQVKDGTIPMARLDDAVRRILRVKVLAGLFEKPAPKDRPGLPGLETLGSPEHRAVGREAVRKSLVLLKNDKGTLPLSPKARVLVAGDGADNIGKQSGGWTISWQGTGNRNDEFPGATSILGGIRDAVADAGGSVEFDVAGQYKTKPDVAIVVFGEEPYAEFQGDVETLEYQPDQKQDLALLKKLKDQGIPVVAVFLSGRPMWVNPELNASDAFVAAWLPGTEGGGVADVLFTDKAGKVQHDFAGKLSYSWPRTAAQTTVNRGDADYNPLFAYGYGLTYKDKSKVGTLPEESGVPAEARQNAGIYFRAGALRLPGRFL
B3: 36 (protein)
chain: STAIAQEGAAPAAILHPEKWPRPATQRLIDPAVEKRVDALLKQLSVEEKVGQVIQGDIGTITPEDLRKYPLGSILAGGNSGPNGDDRAPPKEWLDLADAFYRVSLEKRPGHTPIPVLFGIDAVHGHGNIGSATIFPHNIALGMTHDPELLRRIGEVTAVEMAATGIDWTFAPALSVVRDDRWGRTYEGFSEDPEIVAAYSAAIVEGVQGKFGSKDFMAPGRIVASAKHFLADGGTDQGRDQGDARISEDELIRIHNAGYPPAIDAGVLTVMASFSSWQGIKHHGHKQLLTDVLKGQMGFNGFIVGDWNAHDQVPGCTKFNCPTSLIAGLDMYMAADSWKQLYENTLAQVKDGTIPMARLDDAVRRILRVKVLAGLFEKPAPKDRPGLPGLETLGSPEHRAVGREAVRKSLVLLKNDKGTLPLSPKARVLVAGDGADNIGKQSGGWTISWQGTGNRNDEFPGATSILGGIRDAVADAGGSVEFDVAGQYKTKPDVAIVVFGEEPYAEFQGDVETLEYQPDQKQDLALLKKLKDQGIPVVAVFLSGRPMWVNPELNASDAFVAAWLPGTEGGGVADVLFTDKAGKVQHDFAGKLSYSWPRTAAQTTVNRGDADYNPLFAYGYGLTYKDKSKVGTLPEESGVPAEARQNAGIYFRAGALRLPGRFL
B4: 37 (protein)
chain: STAIAQEGAAPAAILHPEKWPRPATQRLIDPAVEKRVDALLKQLSVEEKVGQVIQGDIGTITPEDLRKYPLGSILAGGNSGPNGDDRAPPKEWLDLADAFYRVSLEKRPGHTPIPVLFGIDAVHGHGNIGSATIFPHNIALGATHDPELLRRIGEVTAVEMAATGIDWTFAPALSVVRDDRWGRTYEGFSEDPELVAAYSAAIVEGVQGKFGSKDFMAPGRIVASAKHFLADGGTDQGRDQGDARISEDELIRIHNAGYPPAIDAGVLTVMASFSSWQGIKHHGHKQLLTDVLKGQMGFNGFIVGDWNAHDQVPGCTKFNCPTSLIAGLDMYMAADSWKQLYENTLAQVKDGTIPMARLDDAVRRILRVKVLAGLFEKPAPKDRPGLPGLETLGSPEHRAVGREAVRKSLVLLKNDKGTLPLSPKARVLVAGDGADNIGKQSGGWTISWQGTGNRNDEFPGATSILGGIRDAVADAGGSVEFDVAGQYKTKPDVAIVVFGEEPYAEFQGDVETLEYQPDQKQDLALLKKLKDQGIPVVAVFLSGRPMWVNPELNASDAFVAAWLPGTEGGGVADVLFTDKAGKVQHDFAGKLSYSWPRTAAQTTVNRGDADYNPLFAYGYGLTYKDKSKVGTLPEESGVPAEARQNAGIYFRAGALRLPGRFL
B5: 34 (protein)
chain: STAIAQEGAAPAAILHPEKWPRPATQRLIDPAVEKRVDALLKQLSVEEKVGQVIQGDIGTITPEDLRKYPLGSILAGGNSGPNGDDRAPPKEWLDLADAFYRVSLEKRPGHTPIPVLFGIDAVHGHGNIGSATIFPHNIALGATHDPELLRRIGEVTAVEMAATGIDWTFAPALSVVRDDRWGRTYEGFSEDPEIVAAYSAAIVEGVQGKFGSKDFMAPGRSVASAKHFLADGGTDQGRDQGDARISEDELIRIHNAGYPPAIDAGVLTVMASFSSWQGIKHHGHKQLLTDVLKGQMGFNGFIVGDWNAHDQVPGCTKFNCPTSLIAGLDMYMAADSWKQLYENTLAQVKDGTIPMARLDDAVRRILRVKVLAGLFEKPAPKDRPGLPGLETLGSPEHRAVGREAVRKSLVLLKNDKGTLPLSPKARVLVAGDGADNIGKQSGGWTISWQGTGNRNDEFPGATSILGGIRDAVADAGGSVEFDVAGQYKTKPDVAIVVFGEEPYAEFQGDVETLEYQPDQKQDLALLKKLKDQGIPVVAVFLSGRPMWVNPELNASDAFVAAWLPGTEGGGVADVLFTDKAGKVQHDFAGKLSYSWPRTAAQTTVNRGDADYNPLFAYGYGLTYKDKSKVGTLPEESGVPAEARQNAGIYFRAGALRLPGRFL
B6: 38 (protein)
chain: STAIAQEGAAPAAILHPEKWPRPATQRLIDPAVEKRVDALLKQLSVEEKVGQVIQGDIGTITPEDLRKYPLGSILAGGNSGPNGDDRAPPKEWLDLADAFYRVSLEKRPGHTPIPVLFGIDAVHGHGNIGSATIFPHNIALGATHDPELLRRIGEVTAVEMAATGIDWTFAPSLSVVRDDRWGRTYEGFSEDPEIVAAYSAAIVEGVQGKFGSKDFMAPGRIVASAKHFLADGGTDQGRDQGDARISEDELIRIHNAGYPPAIDAGVLTVMASFSSWQGIKHHGHKQLLTDVLKGQMGFNGFIVGDWNAHDQVPGCTKFNCPTSLIAGLDMYMAADSWKQLYENTLAQVKDGTIPMARLDDAVRRILRVKVLAGLFEKPAPKDRPGLPGLETLGSPEHRAVGREAVRKSLVLLKNDKGTLPLSPKARVLVAGDGADNIGKQSGGWTISWQGTGNRNDEFPGATSILGGIRDAVADAGGSVEFDVAGQYKTKPDVAIVVFGEEPYAEFQGDVETLEYQPDQKQDLALLKKLKDQGIPVVAVFLSGRPMWVNPELNASDAFVAAWLPGTEGGGVADVLFTDKAGKVQHDFAGKLSYSWPRTAAQTTVNRGDADYNPLFAYGYGLTYKDKSKVGTLPEESGVPAEARQNAGIYFRAGALRLPGRFL

The values that follow come from patent publication US8357523B2, “Beta-glucosidase variant enzymes and related polynucleotides” (Codexis, Inc., priority 2009, dated 2013).

The data set is described as follows: High throughput cellobiose assay: fold improvement in cellobiase activity of CelA variants over a control enzyme (Tables 2A-2D, 3, 5, 6, 7). Format: biochemical. The note with it: 3.3 g/l cellobiose, 50° C. and pH 6.5; compared to native CelA (SEQ ID NO: 4). As to the method: β-glucosidase activity was also determined using a cellobiose assay, which used cellobiose as substrate. In a total volume of 100 μL, 25 μL clear media supernatant containing CelA enzyme was added to 10 g/L cellobiose (Fluka Cat. No. 22150, Sigma-Aldrich, Inc., St. Louis, Mo.) in 100 mM sodium phosphate buffer (pH 6-7) or sodium acetate buffer (pH 5-5.5). The reaction was incubated at 45-70° C. for an appropriate time (25 minutes to overnight depending on the enzyme concentration) while shaking. Glucose production was determined using an enzymatic glucose assay (K-GLUC, Megazyme, Ireland). 10 μl of each reaction was added to 190 μl GOPOD reagent (supplied as part of the K-GLUC assay kit). The reaction was incubated at 45° C. for 20 minutes and the absorbance of the solution was measured at 510 nm. The GOPOD reagent contains 50 mM Potassium phosphate buffer pH7.4, 0.011M p-hydroxybenzoic acid, 0.008% w/v sodium azide, glucose oxidase (>12,000 U/L), peroxidase (>650 U/L) and 80 mg/L 4-aminoantipyrine. The glucose oxidase enzyme in the reagent reacts with any glucose present in the sample and produces hydrogen peroxide which then reacts with the 4-aminoantipyrine to produce a quinoneimine dye in quantities proportionate with the amount of glucose present and can be measured spectrophotometrically at 510 nm. Detectable β-glucosidase activity was observed under high throughput screening conditions (i.e., pH 7, 50° C.).
Plasmid libraries containing variant CelA genes were transformed into B. megaterium and plated on Luria-Bertani (LB) agar plates containing 3 μg/mL tetracycline with a DM3 regeneration media overlay (400 mM sodium succinate dibasic, pH 7.3, 0.5% casamino acids, 0.5% yeast extract, 0.4% K2HPO4, 0.2% KH2PO4, 20 mM MgCl2, 0.5% glucose and 0.2% BSA). After incubation for at least 18 hours at 30° C., colonies were picked using a Q-bot® robotic colony picker (Genetix USA, Inc., Beaverton, Oreg.) into shallow, 96-well well microtiter plates containing 180 μL, LB and 10 μg/mL tetracycline. Cells were grown overnight at 37° C. with shaking at 200 rpm and 85% humidity. 10 μL of this culture was then transferred into 96-well microtiter plates (deep well) containing 390 μL A5-glucose-xylose medium and 10 μg/mL tetracycline as described in example 2. The plates were then incubated at 37° C. with shaking at 250 rpm and 85% humidity overnight (˜18-24 hours). The deep plates were centrifuged at 4000 rpm for 15 minutes and the clear media supernatant containing the secreted CelA enzyme was used for the high throughput pNPG or cellobiose assay of Example 5.
The CelA libraries were screened in high throughput using the cellobiose assay of Example 5 (Substrate: cellobiose; pH: 5-7; temperature: 45-72° C.; time: 2-24 hrs) for the identification of improved variants.
In shallow, 96-well microtiter plates 25 μL of media supernatant was added to 75 μL of […] cellobiose in 150 mM sodium acetate buffer pH 5-5.5 or 150 mM sodium phosphate buffer pH6-7. After sealing with aluminum/polypropylene laminate heat seal tape (Velocity 11 (Menlo Park, Calif.), Cat#06643-001), the plates were shaken at 45-65° C. for up to 24 hrs. The plates were centrifuged for 5 minutes at 4000 rpm. In shallow well clear microtiter plates, 10 μL of the reaction mixture was added to 190 μL of GOPOD reagent (as in example 5B) per well. The solutions were incubated at 45° C. for 1 hour and absorbance was measured at 510 nm for the identification of active CelA variants.
Improved CelA variants were identified from the high throughput screening of various CelA variant libraries as described in Example 7, using the cellobiose assay of Example 5 using 3.3 g/l cellobiose at temperatures from 50°-55° C. at a pH in the range of 5.3-6.5. Tables 2A, 2B, 2C, and 2D and Table 3 depict the improvement in activities of CelA variants encompassed by the invention. The assay conditions are indicated in each table. […]
On to B1, for which the “Fold improvement over wildtype CelA” value is on record as “+ (+ = 1.1 to 2.0 fold improvement over native CelA (SEQ ID NO: 4))”.
For B2, the “Fold improvement over wildtype CelA” value is reported as “+ (+ = 1.1 to 2.0 fold improvement over native CelA (SEQ ID NO: 4))”.
In the case of B3, the “Fold improvement over wildtype CelA” value is “+ (+ = 1.1 to 2.0 fold improvement over native CelA (SEQ ID NO: 4))”.
B4: the “Fold improvement over wildtype CelA” value is on record as “+ (+ = 1.1 to 2.0 fold improvement over native CelA (SEQ ID NO: 4))”.
Next, B5: “+ (+ = 1.1 to 2.0 fold improvement over native CelA (SEQ ID NO: 4))”; B6: “+ (+ = 1.1 to 2.0 fold improvement over native CelA (SEQ ID NO: 4))”.
